B1: CPEB4 RRM1 (463–573) (domain or fragment, human, UniProt Q17RY0 463-573, looked up)
chain: NGERVERYSRKVFVGGLPPDIDEDEITASFRRFGPLIVDWPHKAESKSYFPPKGYAFLLFQDESSVQALIDACIEEDGKLYLCVSSPTIKDKPVQIRPWNLSDSDFVMDGS

What was measured:
[1] = molecular target: CPEB4 RRM1–RRM2 (463–665) (human) (UniProt Q17RY0); test: native MS
[2] = molecular target: CPEB4 RRM1–RRM2 (463–665) (human) (UniProt Q17RY0); test: semi-native SDS PAGE
[3] = molecular target: the molecule itself; test: semi-native SDS PAGE

| Molecule | stoichiometry N [1] | maximum dimeric population [2] | stoichiometry N [2] | stoichiometry N [3] |
| --- | --- | --- | --- | --- |
| CPEB4 RRM1–RRM2 (463–665) (from UniProt Q17RY0 463-665) (domain or fragment) | 2 | < 10% | 2 | – |
| B1 | – | – | – | 2 |

Source: publication PMC4150798 (Nucleic Acids Research, 2014)
